Data as given in paper PMC5141385, “Small heat shock proteins sequester misfolding proteins in near-native conformation for cellular protection and efficient refolding” (Nature Communications, 2016).
Values belong to the binder of their own block, whether it stands above or below them.

B2: His6-MDH (malate dehydrogenase) (enzyme)
chain: AKVAVLGASGGIGQPLSLLLKNSPLVSRLTLYDIAHTPGVAADLSHIETRATVKGYLGPEQLPDCLKGCDVVVIPAGVPRKPGMTRDDLFNTNATIVATLTAACAQHCPDAMICIISNPVNSTIPITAEVFKKHGVYNPNKIFGVTTLDIVRANAFVAELKGLDPARVSVPVIGGHAGKTIIPLISQCTPKVDFPQDQLSTLTGRIQEAGTEVVKAKAGAGSATLSMAYAGARFVFSLVDAMNGKEGVVECSFVKSQETDCPYFSTPLLLGKKGIEKNLGIGKISPFEEKMIAEAIPELKASIKKGEEFVKNMK
notes: malate dehydrogenase (MDH), thermolabile model substrate; The aggregation, centrifugation and SEC methods say only 'MDH'; also called His6-tagged MDH; source: E. coli (derivative of MC4100), purified (Ni-IDA)
B3: MDH labelled with 7-diethylcoumarin-3-carboxylic acid (enzyme, UniProt P00346 25-338, looked up)
chain: AKVAVLGASGGIGQPLSLLLKNSPLVSRLTLYDIAHTPGVAADLSHIETRATVKGYLGPEQLPDCLKGCDVVVIPAGVPRKPGMTRDDLFNTNATIVATLTAACAQHCPDAMICIISNPVNSTIPITAEVFKKHGVYNPNKIFGVTTLDIVRANAFVAELKGLDPARVSVPVIGGHAGKTIIPLISQCTPKVDFPQDQLSTLTGRIQEAGTEVVKAKAGAGSATLSMAYAGARFVFSLVDAMNGKEGVVECSFVKSQETDCPYFSTPLLLGKKGIEKNLGIGKISPFEEKMIAEAIPELKASIKKGEEFVKNMK
modifications: 7-diethylcoumarin-3-carboxylic acid (succinimidyl ester labelling, sites not stated)
notes: malate dehydrogenase (MDH) purchased from Roche; also called labelled MDH; MDH (Roche); source: bought: Roche; labelled with 7-diethylcoumarin-3-carboxylic acid succinimidyl ester

Columns and labels:
Settings in all cases: both partners purified
[1] = biological target: B3; assay: FRET or BRET; MDH–YFP and coumarin-labelled MDH (each 0.25 μM) mixed in preheated buffer C at 47 °C (heat-induced co-aggregation); signal at 527 nm; with or without Hsp26 or Hsp42
[2] = biological target: B2; assay: co-sedimentation; MDH (0.5 μM) denatured 60 min at 41 °C in buffer C with or without sHsps (0.1–2.5 μM); 10–50% glycerol gradient, 40,000 r.p.m., 1 h, 4 °C, and supernatant-pellet centrifugation; fractions by SDS-PAGE and western blot
Hsp42 [3] = biological target: T1, Hsp42 (S. cerevisiae, UniProt Q12329 1-375); assay: cross-linking; DSS cross-linking of Hsp42/MDH complexes; MDH cross-link pattern by western blot
T1 construct: Hsp42, small heat shock protein of S. cerevisiae; Cloned into pMal-c2E; the enterokinase site was changed to a PreScission site, so residues of that site may remain at the N-terminus; also called sHsp; small heat shock protein Hsp42; source: E. coli ArcticExpress, purified (amylose resin, PreScission cleavage, Sephacryl S-300); not shown: MBP, N-terminal, cleaved

Hsp42 [4] = biological target: T1, Hsp42; assay: FRET or BRET; MDH–YFP and coumarin-labelled MDH (each 0.25 μM) mixed in preheated buffer C at 47 °C (heat-induced co-aggregation); signal at 527 nm; with or without Hsp26 or Hsp42

T1 sequence (Q12329 whole entry): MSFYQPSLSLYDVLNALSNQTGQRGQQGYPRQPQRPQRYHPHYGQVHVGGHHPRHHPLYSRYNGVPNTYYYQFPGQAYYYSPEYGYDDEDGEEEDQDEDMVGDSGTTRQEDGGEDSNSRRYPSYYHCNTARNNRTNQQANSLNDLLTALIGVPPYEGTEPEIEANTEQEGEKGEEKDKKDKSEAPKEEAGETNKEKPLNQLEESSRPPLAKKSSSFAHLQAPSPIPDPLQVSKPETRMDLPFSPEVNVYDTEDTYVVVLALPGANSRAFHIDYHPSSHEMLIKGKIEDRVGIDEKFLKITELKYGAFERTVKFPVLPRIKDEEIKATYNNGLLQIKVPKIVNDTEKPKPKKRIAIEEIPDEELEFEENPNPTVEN

binding result [1]: binds
binding result [2]: binds
B1: Hsp26 (natural protein, S. cerevisiae, UniProt P15992 1-214, looked up)
chain: MSFNSPFFDFFDNINNEVDAFNRLLGEGGLRGYAPRRQLANTPAKDSTGKEVARPNNYAGALYDPRDETLDDWFDNDLSLFPSGFGFPRSVAVPVDILDHDNNYELKVVVPGVKSKKDIDIEYHQNKNQILVSGEIPSTLNEESKDKVKVKESSSGKFKRVITLPDYPGVDADNIKADYANGVLTLTVPKLKPQKDGKNHVKKIEVSSQESWGN
notes: Hsp26, small heat shock protein of S. cerevisiae; also called sHsp; small heat shock protein Hsp26; source: E. coli (derivative of MC4100), solubilised from the pellet in 8 M urea, purified (Ni-IDA, Sephacryl S-300); not shown: His6-Smt3, N-terminal, cleaved

Binder: B2
binding result (Hsp42 [3]): binds

Binder: B3
binding result (Hsp42 [4]): binds
